Consider nine molecules from patent US20200199241A1 (Chugai, published 2020).

B1: IL6R-BP210/IL6R-L (antibody, human IgG1)
heavy: QVQLQESGPGLVKPSETLSLTCAVSGHSISHDHAWSWVRQPPGEGLEWIGFISYSGITNYNPSLQGRVTISRDNSKNTLYLQMNSLRAEDTAVYYCARSLARTTAMDYWGEGTLVTVSSASTKGPSVFPLAPSSKSTSGGTAALGCLVKDYFPEPVTVSWNSGALTSGVHTFPAVLQSSGLYSLSSVVTVPSSSLGTQTYICNVNHKPSNTKVDKKVEPKSCDKTHTCPPCPAPELLGDDSVFLFPPKPKDTLMISRTPEVTCVVVDVSDEDGEVKFNWYVDGVEVHNAKTKPREEQYNSTYRVVSVLTVLHQDWLNGKEYKCKVSNKALPRPIEKTISKAKGQPREPQVYTLPPSRDELTKNQVSLTCLVKGFYPSDIAVEWESNGQPENNYKTTPPVLDSDGSFFLYSKLTVDKSRWQQGNVFSCSVMHEALHNHYTQESLSLSP
light: DIQMTQSPSSLSASVGDRVTITCRASQDISSYLNWYQQKPGKAPKLLIYYTSRLHSGVPSRFSGSGSGTDFTFTISSLQPEDIATYYCQQGNTLPYTFGQGTKVEIK
notes: Anti-IL-6R human IgG1 variant; copies: 2 + 2
B2: IL6R-BP212/IL6R-L (antibody, human IgG1)
heavy: B1 heavy with E235D, D239G, Y298D
light: B1 light
notes: as for B1
B3: IL6R-BP202/IL6R-L (antibody, human IgG1)
heavy: B1 heavy with D270H, K328A
light: B1 light
notes: as for B1
B4: IL6R-BP204/IL6R-L (antibody, human IgG1)
heavy: B1 heavy with E235D, D239G, D270H, K328A
light: B1 light
notes: as for B1
B5: IL6R-BP205/IL6R-L (antibody, human IgG1)
heavy: B1 heavy with E235D, D239G, D270H, Y298D
light: B1 light
notes: as for B1
B6: IL6R-BP112/IL6R-L (antibody, human IgG1)
heavy: B1 heavy with D239G, D270H, R332A
light: B1 light
notes: Alteration introduced into IL6R-B3; also called P238D/P271G
B7: IL6R-BP120/IL6R-L (antibody, human IgG1)
heavy: B1 heavy with D239G, D270H, G273P, K328E, R332A
light: B1 light
notes: Alteration introduced into IL6R-B3; also called P238D/K326E
B8: IL6R-BP126/IL6R-L (antibody, human IgG1)
heavy: B1 heavy with D239G, D270H, G273P, K328L, R332A
light: B1 light
notes: Alteration introduced into IL6R-B3; also called P238D/K326L
B9: IL6R-BP117/IL6R-L (antibody, human IgG1)
heavy: B1 heavy with D239G, D270H, G273P, K328D, R332A
light: B1 light
notes: Alteration introduced into IL6R-B3; also called P238D/K326D

Where a chain is given by its changes, count along the chain named. Names and notes keep the numbering of the source.

T4 sequence (P12314 16-292 limits assumed): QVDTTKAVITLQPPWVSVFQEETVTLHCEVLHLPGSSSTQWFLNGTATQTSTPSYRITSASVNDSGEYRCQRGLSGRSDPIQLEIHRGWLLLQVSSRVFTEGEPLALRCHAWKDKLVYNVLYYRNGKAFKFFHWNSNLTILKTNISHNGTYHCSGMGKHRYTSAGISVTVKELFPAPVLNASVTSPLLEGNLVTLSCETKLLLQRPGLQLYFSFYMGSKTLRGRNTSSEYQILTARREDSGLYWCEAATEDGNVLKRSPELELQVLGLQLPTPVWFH
T6 sequence (P12314 16-292 limits assumed): as above

One assay concerns the target T1, FcγRIIb (human, UniProt P31994 43-217, limits assumed).
T1 construct: also called FcγIIB; CD32
T1 sequence: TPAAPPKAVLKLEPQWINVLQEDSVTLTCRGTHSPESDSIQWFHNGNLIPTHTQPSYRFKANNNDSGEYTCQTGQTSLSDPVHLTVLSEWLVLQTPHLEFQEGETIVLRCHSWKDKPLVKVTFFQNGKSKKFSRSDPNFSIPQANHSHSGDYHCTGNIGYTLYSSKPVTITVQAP
Description: ratio of SPR KD values, parent IL6R-B3/IL6R-L.
For B1, the “KD(IIb) of the parent polypeptide/KD(IIb) of altered polypeptide” value (“KD(IIb)” below) turned out to be 78.4 fold.

For the molecule B2, the “KD(IIb)” value stood at 18.7 fold.

Regarding B3, the “KD(IIb)” value stood at 48.4 fold.

With B4, the “KD(IIb)” value worked out at 12.2 fold.

Consider B5, for which the “KD(IIb)” value turned out to be 19.4 fold.

A further assay deals with T2, FcγRIIa type R (human, UniProt P12318 36-217).
T2 construct: also called FcγRIIaR; FcγRIIa(R)
T2 chain: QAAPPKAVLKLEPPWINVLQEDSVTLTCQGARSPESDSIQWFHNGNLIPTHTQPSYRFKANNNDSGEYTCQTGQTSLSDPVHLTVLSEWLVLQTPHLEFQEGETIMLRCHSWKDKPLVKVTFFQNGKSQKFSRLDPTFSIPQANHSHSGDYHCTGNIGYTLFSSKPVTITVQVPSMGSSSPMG
Description: SPR (Biacore), method of Example 14. (Surface plasmon resonance follows binding to a sensor surface in real time, without labels.)
Turning to B1, the Kd (in general, the free concentration of one partner at which half of the binding sites on the other are occupied at equilibrium, for simple one-to-one binding) amounted to 1 µM.

B2 gave a Kd of 3.5 µM.

B3 gave a dissociation constant (Kd) of 1.2 µM.

As to B4, the Kd amounted to 4.5 µM.

Consider B5, for which the Kd amounted to 3.5 µM.

Another assay addresses T3, FcγRIIa type H (human, UniProt P12318 36-217).
T3 construct: also called FcγRIIaH; FcγRIIa(H)
T3 sequence: T2 chain with R133H
Description: SPR (Biacore), method of Example 14.
The molecule B1 showed a dissociation constant Kd of 95 µM. In other words, the double-digit micromolar range.

The molecule B2 came in with a Kd of 22 µM. Against the preceding molecule, the Kd is about 4.3-fold lower.

In the case of B3, the dissociation constant Kd was 92 µM.

B4 gave a Kd of 21 µM.

In turn, B5 yielded a Kd of 28 µM.

For a further assay, the target named is T1, FcγRIIb. The assay can be described thus: SPR (Biacore), method of Example 14.
As for B1, the Kd is 39 nM.

The molecule B2 gave a Kd of 170 nM.

B3 returned a Kd of 64 nM.

For B4, the affinity, expressed as Kd, was 250 nM.

On to B5, for which the Kd turned out to be 160 nM. Against the preceding molecule, the Kd is about 1.6-fold lower.

A further assay has as its target T4, FcγRIa (human, UniProt P12314 16-292, limits assumed).
T4 construct: also called CD64
The assay can be described thus: SPR (Biacore), method of Example 14.
For the molecule B1, the dissociation constant Kd was determined as 65 nM. In other words, the double-digit nanomolar range.

B2: the affinity, expressed as Kd, was 5.2 nM.

Regarding B3, the Kd turned out to be 95 nM.

In turn, B4 returned a Kd of 7.6 nM.

B5 registered a Kd of 7.7 nM.

Another assay addresses T5, human FcγRIIb (human, UniProt P31994 43-217, limits assumed).
T5 construct: also called FcγIIB
T5 sequence: T1 sequence
The assay can be described thus: SPR (Biacore), binding amount relative to IL6R-BF648/IL6R-L = 100.
B6 returned a relative binding of 157.

B7 displayed a relative binding of 114.

The molecule B8 yielded a relative binding of 103.

In turn, B9 yielded a relative binding of 118.

Another assay addresses T6, human FcγRIa (human, UniProt P12314 16-292, limits assumed).
T6 construct: also called CD64
The assay is described as above.
In the case of B6, the relative binding was determined as 119.

The molecule B7 yielded a relative binding of 125.

As to B8, the relative binding is 113.

The molecule B9 returned a relative binding of 124.

In another assay the target is T7, human FcγRIIa type H (human, UniProt P12318 36-217).
T7 construct: also called FcγRIIaH; FcγRIIa(H)
T7 sequence: T2 chain with R133H
Described as above.
B6 came in with a relative binding of 113.

The molecule B8 yielded a relative binding of 132.

Turning to B9, the relative binding came to 96.

The target of another assay is T8, human FcγRIIa type R (human, UniProt P12318 36-217).
T8 construct: also called FcγRIIaR; FcγRIIa(R)
T8 chain: T2 chain
The description is as above.
In turn, B6 had a relative binding of 340.

As to B7, the relative binding came to 175.

In the case of B8, the relative binding worked out at 167.

For the molecule B9, the relative binding was determined as 166.
